Values of other authors as cited in patent US20260174875A1 (Novo Nordisk A/S, priority 2023, published 2026).

Conditions: endogenous hormone; cited from earlier work

Substance: Amylin (KCNTATCATQRLANFLVHSSNNFGAILSSTNVGSNTY; Islet amyloid polypeptide; UniProt P10997 34-70, looked up) ["a 37-amino acid long polypeptide hormone produced in pancreatic beta (β)-cell from where it is co-secreted with insulin"]
- half-life: 15 to 20 min
